Where two headings read alike, the source gives them in different places.
Tests used:
[1] = system: white adipose vasculature; assay: Peptide localization in white fat; assay type: in vivo, mouse; conditions: intravenous
From the text: (A) and (B) Anti-phage immunohistochemistry in paraffin sections of subcutaneous white fat from leptin-deficient mice intravenously injected 6 hr prior to tissue processing. (C) and (D) Peptide-FITC immunofluorescence in paraffin sections of subcutaneous white fat from leptin-deficient mice intravenously injected 6 hr prior to tissue processing. […] (SEQ ID NO:22) linked to FITC peptide, or (D) control. CARAC (SEQ ID NO:12) linked to FITC peptide. […] Bar: 10 μm.
(A), (C) and (E) Peptide-FITC immunofluorescence or (B), (D) and (F) lectin-rhodamine immunofluorescence in blood vessels of (A), (B), (E) and (F) subcutaneous white fat or (C) and (D) pancreas controls detected in paraffin-sectioned tissues from c57bl/6 mice intravenously co-injected 5 min prior to tissue processing. […] (SEQ ID NO:22) linked to FITC peptide and lectin-rhodamine; or (E) and (F) control CARAC (SEQ ID NO:12) linked to FITC peptide and lectin-rhodamine; (B), (D) and (F) Arrows show endothelium marked with lectin. […] Bar: 10 μm.
Staining of formalin-fixed, paraffin-embedded mouse tissue sections was performed (Pasqualini & Rouslahti, 1996; Pasqualini et al., 2000). For phage-peptide immunolocalization, 10^10 TU of [sequence] […] Apoptosis was detected using standard TUNEL immunohistochemistry and an HRP-conjugated antibody. […]

[2] = system: mouse villous yolk sac (vys); assay: Peptide localization in placenta (immunohistochemistry, FITC immunofluorescence); assay type: in vivo; conditions: 18 dpc pregnant mice, intravenous, 6 h
Experimental: Fusion and Recombinant Peptides Carboxyfluorescein (FITC)-conjugated [sequence] […] The FITC-peptide stocks were made by dissolving lyophilized peptides in DMSO to a concentration of 20 mM, after which the peptides were diluted to 1 mM with PBS (phosphate buffered saline) and aliquots were frozen until use. The [sequence] (SEQ ID NO:144) peptide and an unrelated control peptide, [sequence] (SEQ ID NO:87), fused in-frame with GST at the amino-terminus were purified to approximately 90% purity using the BugBuster GST Bind Kit (Novagen, Madison, Wis.). Purified peptides were buffer-exchanged into PBS using Centricon PL-10 columns (Millipore, Bedford, Mass.) and the aliquots were frozen until use. […]
Peptide Localization in Tissues Immunohistochemistry on sections of formalin-fixed, paraffin-embedded mouse tissue was performed as described (Pasqualini et al., 2000; Pasqualini and Ruoslahti, 1996): For phage-peptide immunolocalization, a rabbit anti-fd phage antibody (Sigma Chemicals, St. Louis, Mo.) was used at 1:1,000 dilution and detected with a secondary horseradish peroxidase (HRP)-conjugated antibody. For GST-peptide immunolocalization, a goat anti-GST antibody (Amersham, Piscataway, N.J.) was used at 1:1,000 dilution and detected with a secondary alkaline phosphatase (AP)-conjugated antibody. […]

placenta [3] = system: placenta
From the text: The CARAC peptide (SEQ ID NO:12), an adipose targeting peptide (FE, TREVHRS, SEQ ID NO:13) or fd-tet phage were used as non-placental targeting controls.

[4] = system: MDA-MB-435-derived tumor xenografts; assay: In vivo tumor homing of APA-binding phage; design: species or system mouse
Experimental: FIG. 31. APA-binding phage specifically bind tumors. Equal amounts of phage were injected into the tail veins of mice bearing MDA-MB-435-derived tumors and phage were recovered after perfusion. Mean values for phage recovered from the tumor or control tissue (brain) and the standard error from triplicate platings are shown.
MDA-MB-435-derived tumor xenografts were established in female nude mice 2 months old (Jackson Labs, Bar Harbor, Me.). Mice were anesthetized with Avertin and injected intravenously through the tail vein with 10^9 TU of the phage in a 200 μl volume of DMEM. The phage were allowed to circulate for 5 min, and the animals were perfused through the heart with 5 ml of DMEM. The tumor and brain were dissected from each mouse, weighed, and equal amounts of tissue were homogenized. The tissue homogenates were washed three times with ice-cold DMEM containing a proteinase inhibitor cocktail and 0.1% BSA. Bound phage were rescued and counted as described for cell panning. Fd-tet phage was injected at the same input as a control. The experiment was repeated twice. In parallel, part of the same tissue samples were fixed in Bouin solution, and imbedded in paraffin for preparation of tissue sections. An antibody to M-13 phage (Amersham-Pharmacia) was used for the staining.

placenta [5] = assay: Peptide embryotoxicity in pregnant mice; assay type: in vivo, mouse
From the text: FIG. 7. TPKTSVT (SEQ ID NO:5) peptide inhibits mouse pregnancy and is teratogenic. (A) Pregnancy courses (representative from 5 independent experiments) in mice subcutaneously injected with the indicated phage or peptides were monitored by daily weighing of the mice upon each injection (arrows). (B) Appearance of a normally developed 20 dpc embryo (left) for control GST fusion treatment compared to a representative 20 dpc embryo (right) resulting from TPKTSVT (SEQ ID NO:5) linked to GST fusion treatment. A severely teratogenic phenotype is observed with the placental targeting fusion peptide. (C) and […]) Hematoxylin/eosin staining of 20 dpc paraffin-embedded placentas derived from mice injected for 7 days with (C) control GST fusion or (D) the TPKTSVT (SEQ ID NO:5) linked to GST fusion peptide. Note hemorrhage (black asterisks), necrosis (white asterisks), and fibrosis (arrowheads). Bar: 500 μm (50 μm for insets).
Peptide Embryotoxicity For peptide embryotoxicity studies, agents were injected at the following daily doses: GST-peptides 0.1 mg (˜3 nMoles), FITC-peptides 50 μg (˜30 nMoles),and phage-peptides 10″ TU. All agents were dissolved in PBS. Mice were injected subcutaneously in the back (5-10 injections per course).
The phage or fusion peptides were subcutaneously injected and the progression of pregnancy was compared with mice injected with control phage, control peptides, or saline. Multiple injections of the TPKTSVT (SEQ ID NO:5) peptide were administered, starting at mid-pregnancy (˜12 days postconception, dpc) in doses non-toxic to the mother.

placental transporter = assay: Phage recovery from embryos (materno-fetal transfer); assay type: in vivo, mouse; conditions: excess of co-injected peptide
Experimental: FIG. 4. The TPKTSVT (SEQ ID NO:5) peptide specifically binds a placental transporter. (A) Recovery of indicated phage from embryos carried by 18 dpc pregnant mice intravenously injected (tail vein) with 10^10 TU of the indicated phage 6 h prior to phage recovery or immunohistochemistry. […] TPKTSVT (SEQ ID NO:5) phage were administered alone (dark cross-hatched) or co-administered with control-GST (black) or TPKTSVT (SEQ ID NO:5) linked to GST (white bar). Shown are mean+/−SEM (standard error) from different embryos. (B-D) Anti-phage IMP immunohistochemistry (arrowheads) in paraffin sections of the vys from the corresponding mice, as indicated. Asterisks mark embryonic capillaries. Bar: 20 μm.
Phage Recovery Mouse placentas and embryonic livers were individually weighed, ground with a glass Dounce homogenizer and suspended in 1 ml of Dulbecco's Modified Eagle's Medium (DMEM) containing proteinase inhibitors (DMEM-prin—1 mM PMSF, 20 μg/ml aprotinin, and 1 μg/ml leupeptin). The suspension was vortexed and washed three times with DMEM-prin. […]
The TPKTSVT (SEQ ID NO:5) Peptide Binds to a Placental Transporter The TPKTSVT (SEQ ID NO:5) peptide localizes to the vys (FIG. 3), which is the tissue primarily responsible for materno-fetal transport in mice. […] Either TPKTSVT (SEQ ID NO:5)-phage or control phage were injected into pregnant mice and the recovery of phage from embryos was determined.

HUVEC cells = assay: Apoptosis assay in HUVEC (propidium iodide, chromatin fragmentation); assay type: cell-based, human; conditions: 10^6 HUVEC, 15 μM, 2-4 hours
Experimental: FIG. 26. Penetratin peptide chimera binding to the β5 cytoplasmic domain induces programmed cell death. 10^6 HUVEC cells were harvested in complete media and 15 μM penetratin peptide chimeras were added to the cells. […] (a) Profile obtained with starved cells after 24 h. (b) Confluent cells in complete media. (c) 15 μM of penetratin after four hours. (d) 15 μM of VISY-penetratin chimera after four hours.
FIG. 30. Chimeric peptide containing VISY peptide linked to penetratin (antennapedia) induces apoptosis. VISY induced apoptosis was inhibited by addition of a caspase inhibitor (zVAD).
Approximately 1×10^6 cells were harvested in complete media and 15 AM of peptide added for 4, 8, or 12 h. The cellswere then washed in PBS and resuspended in 0.5 ml propidium iodide solution (50 μg/ml PI, 0.1% Triton X-100, 0.1% sodium citrate). After a 24-h incubation at 4° C., cells were counted with a XL Coulter (Coulter Corporation) with a 488-nm laser; 12,000 cells were counted for each histogram, and cell cycle distributions were analyzed with Multicycle program.
Approximately 1×10^6 cells were harvested in complete medium, and 15 μM of peptide was added for 4, 8, or 12 hours. The cells were then washed in PBS and resuspended in 0.5 ml propidium iodide solution (50 μg/ml PI, 0.1% Triton X-100, 0.1% sodium citrate). After a 24-h incubation at 4° C., the cells were counted with an XL Coulter (Coulter Corporation) with a 488 nm laser; 12,000 cells were counted for each histogram, and cell cycle distributions were analyzed with the Multicycle program.
10^6 HUVEC were treated with 15 μM of VISY antennapedia (penetratin) chimera or 15 μM of antennapedia peptide (pentratin) alone for 2-4 hours and chromatin fragmentation was analyzed by electrophoresis in an agarose gel.

β5 integrin = target: T1, β5 integrin (Homo sapiens, UniProt P18084); assay: Annexin V binding to GST-β5 integrin cytoplasmic domain (ELISA, competition)
T1 construct: Plates were coated with GST fusion proteins of the cytoplasmic domains of various integrins
T1 sequence (P18084 743-799 limits assumed): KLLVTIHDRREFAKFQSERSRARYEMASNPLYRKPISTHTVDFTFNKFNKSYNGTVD
Experimental: FIG. 29A. Competitive binding of Annexin V to β5 integrin with VISY peptide. Binding assays were performed by ELISA.
Competitive binding assays were performed to examine the binding of Annexin V to β5 integrin and the effect of the VISY peptide. Plates were coated with GST fusion proteins of the cytoplasmic domains of various integrins and Annexin V was added to the plates. Binding of Annexin V was determined using anti-Annexin V antibodies. […] Calcium was used because Annexin V activity has been reported to be modulated by calcium. Binding of Annexin V to GST-β5 was blocked by addition of the VISY peptide (FIG. 29A).
A reciprocal study was performed, using Annexin V to coat plates and adding GST fusion proteins of integrin cytoplasmic domains. Binding was assessed using anti-GST fusion protein antibodies. […] In some studies, calcium ion appeared to interfere with the binding interaction between GST-β5 and Annexin V, with decreased binding observed in the presence of calcium (not shown).

mouse spleen cells = assay: Testing Fab clones in vitro using BRASIL; assay type: cell-based; conditions: for binding to mouse spleen cells compared to Fd-tet control: BRASIL, FIG. 13; for binding to mouse spleen cells compared to NPC-3TT: FIG. 14
Experimental: FIG. 13. Spleen targeting in vitro using BRASIL. Binding of Fab clones #2, #6, #10, #12 and control Fab clone NPC-3TT were directly compared to each other.
A singe cell suspension was prepared from two mouse spleens. The suspension was divided into five tubes and incubated on ice with 3×10^9 TU of Fab clones #2, #6, #10, #12 and 2×10^9 TU tet-phage. Phage bound to mouse spleen cells were recovered by BRASIL. 200 μl of log phase ER2537 E.coli was infected with the pellet and serial dilutions were plated on LB/carbenicillin and LB/tetracycline plates for assessment of phage binding. Fd-tet was used as an internal control to normalize all the phage homing experiments.

mouse spleen = assay: Testing Fab clones in vivo with BRASIL; conditions: 5 minutes circulation
[6] = FITC conjugates-I, 1 mouse iv (predominantly) or ip ~every other day, day 1-day 18, 9 times, Total 450 mM (~450 μg)
[7] = FITC conjugates-II, 1 mouse sc (predominantly) or iv ~every other day, day 4-day 17, 10 times, Total 1M (~1 mg)

## CARAC-FITC: FITC-conjugated control peptide CARAC (SEQ ID NO:12)
[1]; C57BL/6 (leptin+/+) mice, co-injected lectin-rhodamine
  localization in white fat of wild-type mice: not detectable in white fat vasculature
[1]; leptin-deficient mice
  localization in white fat of ob/ob mice: undetectable in adipose tissue
[2]
  localization in placenta: not detectable in the placenta
Placenta [3]; [6]
  Peptide Effect on Embryo: No effect
  Pregnancy Outcome: Delivery: 18 d, 5 normal pups
Placenta [3]; [7]
  Peptide Effect on Embryo: Slight toxicity?
  Pregnancy Outcome: Delivery: 20 d, 5 pups, 1-dead

## CPKVCPRECESNC
[4]; not shown
  anti-M13 immunostaining on tissue sections: Strong phage staining was apparent in tumor vasculature but not in normal vasculature
[4]; nude mice, 10^9 TU iv, 5 min
  phage enrichment in tumor xenografts compared to brain tissue: 4 fold

## TPKTSVT [placenta targeting peptide]
Placenta [5]; data not shown
  toxicity to the mother: no signs of peptide toxicity to the mother were observed
Placenta [5]; seven days of peptide administration
  histopathological examination of the placentas: massive dilation of blood vessels and intraplacental bleeding, as well as widespread hemorrhagic necrosis
Placental transporter
  effect on materno-fetal transfer / vys uptake of TPKTSVT-phage on co-injection: blocked

## VVISYSMPD
HUVEC cells
  induction of apoptosis (chromatin fragmentation): Neither VISY nor penetratin alone induced apoptosis
β5 integrin; in the absence of calcium
  inhibition of Annexin V binding to GST-β5: 45%
β5 integrin; in the presence of calcium
  inhibition of Annexin V binding to GST-β5: 67%

B1: Fab clone #12: chicken anti-mouse spleen Fab phage clone selected by BRASIL (protein)
chain: ANQPWPPLTLDESGGGLQTPGGALSLVCKASGFTMSSYDMFWVRQAPGKGLEFVAGISSSGSSTEYGAAVKGRATISRDNGQSTVRLQLNNLRAED
Mouse spleen cells
  binding to mouse spleen cells compared to Fd-tet control: selective binding to mouse spleen cells
  binding to mouse spleen cells compared to NPC-3TT: only slightly higher than the binding of phage NPC-3TT
Mouse spleen
  binding / localization to spleen compared to Fd-tet phage: did not exhibit significantly elevated binding to mouse spleen

B2: Fab clone #6: chicken anti-mouse spleen Fab phage clone selected by BRASIL (protein)
chain: CQPAMAAVTLDESGGGLQTPGGTLSLVCKASGISIGYGMNWVRQAPGKGLEYVASISGDGNFAHYGAPVKGRATISRDDGQNTVTLQLNNLR
Mouse spleen cells
  binding to mouse spleen cells compared to Fd-tet control: lowest degree of binding
  binding to mouse spleen cells compared to NPC-3TT: only slightly higher than the binding of phage NPC-3TT
Mouse spleen
  binding / localization to spleen compared to Fd-tet phage: many-fold increased binding to spleen

B3: Fab clone #2: chicken anti-mouse spleen Fab phage clone selected by BRASIL (protein)
chain: CQPAMAAVTLDESGGGLQTPGGALSLVCKASGFTFNSYPMGWVRQAPGKGLEWVAVISSSGTTWYAPAVKGRATISRDNGQSTVRLQLSNLRAED
Mouse spleen cells
  binding to mouse spleen cells compared to Fd-tet control: at least a two-fold increased binding
  binding to mouse spleen cells compared to NPC-3TT: highest levels of binding to mouse spleen cells
Mouse spleen
  binding / localization to spleen compared to Fd-tet phage: many-fold increased binding to spleen
